The record followed here is patent publication US20220356213A1 (MAX PLANCK GESELLSCHAFT ZUR F RDERUNG DER WISSENSCHAFTEN E V, published 2022).

The assay deals with T1, TMH-FLAG-(L1)-iLID.
T1 chain: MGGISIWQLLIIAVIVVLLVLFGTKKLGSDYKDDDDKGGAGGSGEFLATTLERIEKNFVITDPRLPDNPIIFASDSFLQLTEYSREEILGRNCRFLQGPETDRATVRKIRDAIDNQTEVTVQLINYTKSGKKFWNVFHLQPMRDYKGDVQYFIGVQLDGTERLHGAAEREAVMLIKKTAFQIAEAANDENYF
The assay is described as follows: cell-based or functional assay.

B1: SspB_Nano-SctQ (other)
chain: MSLRSGAGSSPKRPKLLREYYDWLVDNSFTPYLVVDATYLGVNVPVEYVKDGQIVLNLSASATGNLQLTNDFIQFNARFKGVSRELYIPMGAALAIYARENGDGVMFEPEEIYDELNIGGAGELGGSGGSGGSLLTLPQAKLSELSLRQRLSHYRQNYLWEEGKLELTVSEPPSSLNCILQLQWKGTHFTLYCFGDDLANWLTPDLLGAPFSTLPKELQLALLERQTVFLPKLVCNDIATASLSVTQPLLSLRLSRDNAHISFWLTSAEALFALLPARPNSERIPLPILLSLRWHKVYLTLDEVDSLRLGDVLLAPEGSGPNSPVLAYVGENPWGYFQLQSNKLEFIGMSHESDELNPKPLTDLNQLPVQVSFEVGRQILDWHTLTSLEPGSLIDLTTPVDGEVRLLANGRLLGHGRLVEIQGRLGVRIERLTEVTIS
For B1, the “L/D ratio of export of heterologous cargo YopE1-53-NanoLuc-FLAG, LITESEC-supp2” value was less than 0.02; the “L/D ratio of export of heterologous cargo, LITESEC-supp2” value turned out to be 0.01; the “export of heterologous cargo, LITESEC-supp2, dark” value came to 205 % WT secretion; the “export of heterologous cargo, LITESEC-supp2, light” value turned out to be 2 % WT secretion. Also, the “light/dark secretion ratio (L/D ratio), LITESEC-supp1, native T3SS substrates, in vitro secretion assay” value is 0.28 and the “light/dark secretion ratio (L/D ratio), LITESEC-supp2 (anchor from pACYC184), native T3SS substrates” value was determined as 0.26.
